Patent EP4628097A1 (Innovent Biologics (Suzhou) Co., Ltd., dated 2025)

Columns and labels:
human VEGF165 [1] = biological target: T1, human VEGF165 (human, UniProt P15692-4 27-191); assay: ELISA, relative binding activity; IEX04-012 about 40 mg/mL in F6, 40 C, 1 week
T1 construct: all are put under this molecule; also called VEGF A; VEGFA

human Ang2 [2] = biological target: T2, human Ang2 (human, UniProt O15123 19-496, limits assumed); assay: as above
T2 construct: Bought proteins; also called hAng2-biotin; Ang2-Bio (Sino)
T2 sequence (looked up): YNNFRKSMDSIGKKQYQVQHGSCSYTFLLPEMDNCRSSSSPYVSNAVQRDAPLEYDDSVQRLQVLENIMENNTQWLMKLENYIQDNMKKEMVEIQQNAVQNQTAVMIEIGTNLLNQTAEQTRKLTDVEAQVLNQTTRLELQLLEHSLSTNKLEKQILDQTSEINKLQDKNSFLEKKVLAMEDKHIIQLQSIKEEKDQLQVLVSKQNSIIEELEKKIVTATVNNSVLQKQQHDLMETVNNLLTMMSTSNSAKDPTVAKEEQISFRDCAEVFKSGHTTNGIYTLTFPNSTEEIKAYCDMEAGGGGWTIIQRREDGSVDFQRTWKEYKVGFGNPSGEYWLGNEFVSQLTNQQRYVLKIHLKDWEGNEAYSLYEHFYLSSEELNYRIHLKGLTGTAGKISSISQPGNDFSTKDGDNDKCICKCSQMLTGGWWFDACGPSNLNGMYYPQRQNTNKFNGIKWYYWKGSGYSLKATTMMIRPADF

human VEGF165 [3] = biological target: T1, human VEGF165; assay: ELISA, relative binding activity; IEX04-012 about 40 mg/mL in F7, 40 C, 1 week
human Ang2 [4] = biological target: T2, human Ang2; assay: as above
human VEGF165 [5] = biological target: T1, human VEGF165; assay: ELISA, relative binding activity; IEX04-012 about 40 mg/mL in F2, 40 C, 1 week
human Ang2 [6] = biological target: T2, human Ang2; assay: as above
human VEGF165 [7] = biological target: T1, human VEGF165; assay: ELISA, relative binding activity; IEX04-012 about 40 mg/mL in F1, 40 C, 2 weeks
human Ang2 [8] = biological target: T2, human Ang2; assay: as above
human VEGF165 [9] = biological target: T1, human VEGF165; assay: ELISA, relative binding activity; IEX04-012 about 40 mg/mL in F8, 40 C, 2 weeks
human Ang2 [10] = biological target: T2, human Ang2; assay: as above
human VEGF165 [11] = biological target: T1, human VEGF165; assay: ELISA, relative binding activity; IEX04-012 about 40 mg/mL in F8, 40 C, 0 weeks
human Ang2 [12] = biological target: T2, human Ang2; assay: as above
human VEGF165 [13] = biological target: T1, human VEGF165; assay: ELISA, relative binding activity; 120 mg/mL formula, 25 C, 1M
human Ang2 [14] = biological target: T2, human Ang2; assay: as above
human VEGF165 [15] = biological target: T1, human VEGF165; assay: ELISA, relative binding activity; final formula 40 mg/mL, 25 C, 3M
human Ang2 [16] = biological target: T2, human Ang2; assay: as above
human VEGF165 [17] = biological target: T1, human VEGF165; assay: ELISA, relative binding activity; final formula 40 mg/mL, 25 C, 2M
human Ang2 [18] = biological target: T2, human Ang2; assay: as above
human VEGF165 [19] = biological target: T1, human VEGF165; assay: ELISA, relative binding activity; IEX04-012 about 40 mg/mL in F9, 40 C, 1 week
human Ang2 [20] = biological target: T2, human Ang2; assay: as above
human VEGF165 [21] = biological target: T1, human VEGF165; assay: ELISA, relative binding activity; 120 mg/mL formula, 40 C, 2W
human Ang2 [22] = biological target: T2, human Ang2; assay: as above
human VEGF165 [23] = biological target: T1, human VEGF165; assay: ELISA, relative binding activity; 150 mg/mL formula, T0
human Ang2 [24] = biological target: T2, human Ang2; assay: as above
human VEGF165 [25] = biological target: T1, human VEGF165; assay: ELISA, relative binding activity; 120 mg/mL formula, 2-8 C, 12M
human Ang2 [26] = biological target: T2, human Ang2; assay: as above
human Ang2 [27] = biological target: T2, human Ang2; assay: ELISA, relative binding activity; IEX04-012 about 40 mg/mL in F9, 40 C, 0 weeks

T1 sequence (P15692 other isoform, or with tags, fused parts or gaps limits assumed): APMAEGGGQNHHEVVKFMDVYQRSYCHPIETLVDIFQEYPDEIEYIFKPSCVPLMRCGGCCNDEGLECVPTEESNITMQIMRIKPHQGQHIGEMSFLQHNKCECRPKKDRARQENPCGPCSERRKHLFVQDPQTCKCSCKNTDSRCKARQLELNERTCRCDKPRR

B1: IEX04-012 (bispecific antibody)
chain: DIQLTQSPSSLSASVGDRVTITCSASQDISNYLNWYQQKPGKAPKVLIYFTSSLHSGVPSRFSGSGSGTDFTLTISSLQPEDFATYYCQQYSTVPWTFGCGTKVEIKGGGGSGGGGSGGGGSGGGGSEVQLVESGGGLVQPGGSLRLSCAASGYDFTHYGMNWVRQAPGKCLEWVGWINTYTGEPTYAADFKRRFTFSLDTSKSTAYLQMNSLRAEDTAVYYCAKYPYYYGTSHWYFDVWGQGTLVTVSSGGGGSGGGGSGGGGSEVQLLESGGGLVQPGGSLRLSCAASGFALDYYAIGWFRQAPGKGLEGVSCISSGEGSTYYADSVKGRFTISRDNSKNTVYLQMNSLRAEDTAVYYCATDSRGDDVACEGLRRNEYDYWGQGTLVTVSS
Human VEGF165 [1]
  Relative binding Activity to VEGF (ELISA, %): 98%
Human Ang2 [2]
  Relative binding Activity to Ang2 (ELISA, %): 96%
Human VEGF165 [3]
  Relative binding Activity to VEGF (ELISA, %): 102%
Human Ang2 [4]
  Relative binding Activity to Ang2 (ELISA, %): 90%
Human VEGF165 [5]
  Relative binding Activity to VEGF (ELISA, %): 98%
Human Ang2 [6]
  Relative binding Activity to Ang2 (ELISA, %): 99%
Human VEGF165 [7]
  Relative binding Activity to VEGF (ELISA, %): 101%
Human Ang2 [8]
  Relative binding Activity to Ang2 (ELISA, %): 100%
Human VEGF165 [9]
  Relative binding Activity to VEGF (ELISA, %): 102%
Human Ang2 [10]
  Relative binding Activity to Ang2 (ELISA, %): 91%
Human VEGF165 [11]
  Relative binding Activity to VEGF (ELISA, %): 100%
Human Ang2 [12]
  Relative binding Activity to Ang2 (ELISA, %): 100%
Human VEGF165 [13]
  Relative binding Activity to VEGF A (ELISA, %): 96%
Human Ang2 [14]
  Relative binding Activity to Ang2 (ELISA, %): 93%
Human VEGF165 [15]
  Relative binding Activity to VEGF A (ELISA, %): 96%
Human Ang2 [16]
  Relative binding Activity to Ang2 (ELISA, %): 85%
Human VEGF165 [17]
  Relative binding Activity to VEGF A (ELISA, %): 102%
Human Ang2 [18]
  Relative binding Activity to Ang2 (ELISA, %): 84%
Human VEGF165 [19]
  Relative binding Activity to VEGF (ELISA, %): 97%
Human Ang2 [20]
  Relative binding Activity to Ang2 (ELISA, %): 96%
Human VEGF165 [21]
  Relative binding Activity to VEGF A (ELISA, %): 113%
Human Ang2 [22]
  Relative binding Activity to Ang2 (ELISA, %): 81%
Human VEGF165 [23]
  Relative binding Activity to VEGF A (ELISA, %): 92%
Human Ang2 [24]
  Relative binding Activity to Ang2 (ELISA, %): 103%
Human VEGF165 [25]
  Relative binding Activity to VEGF A (ELISA, %): 104%
Human Ang2 [26]
  Relative binding Activity to Ang2 (ELISA, %): 104%
Human Ang2 [27]
  Relative binding Activity to Ang2 (ELISA, %): 100%
